Bridge positions count the residues as written; N and C are the ends. Square brackets hold non-standard residues; d marks the D form. Ends that are not written are not given here. R8 = C=CCCCCCC[C@@](C)(N)C(=O)O; S5 = C=CCCC[C@](C)(N)C(=O)O; Sar = CNCC(=O)O
Legend:
[1] = test system: antibody-initiated complement activation (human O sera and AB red blood cells); assay: ABO incompatibility hemolytic assay of complement activity (CH50-type); assay type: cell-based; conditions: peptide 0.8 mg/ml (~0.5 mM)
Experimental: FIG. 1A-1B show PIC1 peptides' inhibition of complement activation in an ABO incompatibility assay. […] Inhibition of ABO incompatibility hemolysis in a CH50-type assay. Peptides are at a final concentration of 0.5 mM. Values are represented as a percent of the positive control, which consists of human O sera and AB red blood cells in GVBS^++ buffer. Data are the means of n=3 independent experiments±SEM.
For hemolytic complement assays, human red blood cells (RBCs) from type AB donors were purified, washed, and standardized to 1.0×10^9 cells/ml, as previously described. Human sera from type O donors at a 15% final concentration was combined with 0.5 mM of the peptides and the volume was brought up to 0.2 ml with GVBS^++ and 5.0×10^7 RBCs. The samples were incubated for 1 hour at 37° C. and then spun at 3,000 rpm for 5 minutes and the supernatant was collected and read at 412 nm. Values are represented as a percent of the positive control, which consists of human O sera and AB red blood cells in GVBS^++ buffer.
To assess the extent to which the peptide variants inhibit antibody-initiated complement activation, an ABO incompatibility ex vivo assay was utilized in which purified erythrocytes from a ‘type AB+’ donor are incubated with sera from a ‘type O’ subject containing anti-A and anti-B antibodies. Peptides were tested at a concentration of 0.8 mg/ml (˜0.5 mM). […] D-amino acid variants PA-0127 and PA-0133 decreased ABO hemolysis by 20% (P value=0.083) and 25% (P value=0.076), respectively. […]

MPO = target: T1, MPO (Homo sapiens, UniProt P05164); assay: MPO activity assay (TMB oxidation); assay type: biochemical; conditions: half-maximal values from dose-response curves
T1 construct: purchased Lee BioSolutions (Maryland Heights, Mo.)
T1 sequence (P05164 49-745): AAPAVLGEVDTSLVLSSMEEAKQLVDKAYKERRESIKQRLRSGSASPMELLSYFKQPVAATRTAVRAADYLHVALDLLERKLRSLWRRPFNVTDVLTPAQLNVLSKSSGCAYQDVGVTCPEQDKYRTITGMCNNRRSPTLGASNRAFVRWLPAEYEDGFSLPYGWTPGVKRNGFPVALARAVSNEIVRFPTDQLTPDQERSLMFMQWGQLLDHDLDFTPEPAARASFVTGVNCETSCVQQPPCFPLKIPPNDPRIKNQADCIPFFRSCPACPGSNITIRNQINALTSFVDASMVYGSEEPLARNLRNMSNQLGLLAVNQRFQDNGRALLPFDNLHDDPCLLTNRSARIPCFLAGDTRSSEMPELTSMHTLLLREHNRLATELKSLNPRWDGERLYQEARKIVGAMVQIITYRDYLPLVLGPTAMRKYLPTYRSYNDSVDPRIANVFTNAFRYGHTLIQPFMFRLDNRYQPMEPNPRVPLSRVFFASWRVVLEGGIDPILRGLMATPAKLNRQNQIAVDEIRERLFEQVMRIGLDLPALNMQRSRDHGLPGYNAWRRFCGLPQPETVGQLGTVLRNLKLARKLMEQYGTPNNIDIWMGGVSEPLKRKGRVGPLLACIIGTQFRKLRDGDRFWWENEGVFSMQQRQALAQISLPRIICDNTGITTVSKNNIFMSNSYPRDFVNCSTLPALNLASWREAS
Experimental: The MPO activity assay was performed as previously described. Briefly, peptides were diluted to 12 mg/ml and serially titrated in a 96 well plate at a volume of 0.02 ml. MPO was diluted to 20 μg/ml and 0.02 ml was added to the titrated peptides. TMB (3,30,5,50-tetramethylbenzidine) (0.1 ml) was added to each well for 2 minutes, followed by 0.1 ml of 2.5 N H2SO4 for another 2 minutes, and then read on a 96 well plate reader (BioTek) at 450 nm.
The inventors also assessed the ability of RLS-0127* and RLS-0133* to inhibit MPO activity as determined by inhibition of oxidation of TMB in a plate-based assay. […] Additionally, the inventors assessed the ability of RLS-0127* and RLS-0133* to bind C1q in a plate-based assay in which C1q is coated on the plate and increasing amounts of the peptides are added, followed by primary antibody to the peptides and secondary antibody conjugated to HRP. The plate was then incubated with TMB to give a […] signal that is detected at a wavelength of 450 nm in a plate reader.

PD-1/PD-L1 interaction = target: T2, PD-1/PD-L1 interaction (Homo sapiens, UniProt Q15116+Q9NZQ7); assay: PD-1/PD-L1 Blockade Bioassay (Promega); assay type: cell-based; conditions: increasing peptide concentrations
T2 construct: host or cells: PD-1 effector cells; PD-L1 aAPC/CHO-K1 cells
T2 sequence (Q15116 25-288): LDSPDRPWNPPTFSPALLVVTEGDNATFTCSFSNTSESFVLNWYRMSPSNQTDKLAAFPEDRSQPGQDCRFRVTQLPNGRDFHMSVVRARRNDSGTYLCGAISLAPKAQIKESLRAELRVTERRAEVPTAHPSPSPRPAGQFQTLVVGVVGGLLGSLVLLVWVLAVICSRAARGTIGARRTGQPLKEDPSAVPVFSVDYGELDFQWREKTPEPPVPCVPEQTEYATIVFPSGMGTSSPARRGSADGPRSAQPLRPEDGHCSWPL
T2 sequence (Q9NZQ7 19-290): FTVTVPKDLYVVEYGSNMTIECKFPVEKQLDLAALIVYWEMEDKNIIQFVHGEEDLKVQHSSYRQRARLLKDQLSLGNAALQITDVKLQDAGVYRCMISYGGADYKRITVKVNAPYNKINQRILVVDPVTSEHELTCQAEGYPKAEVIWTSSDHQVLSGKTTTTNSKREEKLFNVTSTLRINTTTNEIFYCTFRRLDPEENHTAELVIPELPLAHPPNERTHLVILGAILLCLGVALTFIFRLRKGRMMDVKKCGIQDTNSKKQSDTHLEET
Experimental: PD-1 effector cells were incubated with PD1-L1 aAPC cells in the absence or presence of increasing concentrations of anti-PD-1 antibody (positive control) and select PIC1 peptides. Luminescence was detected in luminometer plate reader.
To assess if PIC1 peptides could block PD-1 inhibitory activity in a cell-based assay, select peptides were screened in the PD-1/PD-L1 Blockade Bioassay (Promega). The PD-1/PD-L1 Blockade Bioassay is a biologically relevant MOA-based assay that can be used to measure the potency and stability of antibodies and other biologics designed to block the PD-1/PD-L1 interaction. This bioluminescent cell-based assay is used to measure the potency and stability of molecules targeting PD-1 and consists of two genetically engineered cell lines: aAPC/CHO-K1 Cells are CHO-K1 cells with an engineered cell surface protein designed to activate cognate TCRs in an antigen-independent manner. When the two cell types are co-cultured, the PD-1/PD-L1 interaction inhibits TCR signaling and NFAT-mediated luciferase activity. Addition of an inhibitory molecule that blocks either PD-1 or PD-L1 releases the inhibitory signal and results in TCR signaling and NFAT-mediated luciferase activity.

Row | Substance | MPO inhibition compared with PA-C9Sar (MPO) | inhibition of PD-1/PD-L1 inhibitory signaling (luminescence) (PD-1/PD-L1 interaction) | also measured
1 | IALILEPI(Sar)CQEdRAA (IALILEPIXCQERAA; D-arginine, sarcosine; MOD_RES (9)..(9) Sarcosine; MOD_RES (13)..(13) D-amino acid) [PA-0167] |  |  | inhibition of complement in the hemolytic assay compared to PA-C9Sar [1]: slightly less well
2 | IALIR8EP(Sar)CCQS5RAA (IALI[R8]EP[Sar]CCQ[S5]RAA; bridges not given here; also: R8/S5 5-12 may or may not be stapled) [PA-0136] |  |  | inhibition of ABO incompatible hemolysis compared to PA-I8Sar [1]: same level as the parent molecule
3 | IAS5ILES5I(Sar)CQERAA (IA[S5]ILE[S5]I[Sar]CQERAA; staple 3-7) [PA-0153] | decreased MPO inhibition |  | 
4 | IALILEPdI(Sar)CQERAA (IALILEPIXCQERAA; D-isoleucine, sarcosine; MOD_RES (8)..(8) D-amino acid; MOD_RES (9)..(9) Sarcosine) [PA-0163] | decreased MPO inhibition |  | 
5 | RLS-0142: PIC1 peptide screened in the bioassay; no sequence printed (IALILEP[Sar][dC][S5]QER[S5]A; staple 10-14) |  | did not show PD-1/PD-L1 inhibitory activity | 
6 | IALIR8EPI(Sar)CQS5RAA (IALI[R8]EPI[Sar]CQ[S5]RAA; staple 5-12) [PA-0148] | decreased MPO inhibition |  | 
7 | IALILEP(Sar)dCS5QERS5A (IALILEP[Sar][dC][S5]QER[S5]A; staple 10-14) [PA-0143] |  | did not show PD-1/PD-L1 inhibitory activity | 
8 | IALILEP(Sar)CS5QERS5dA (IALILEP[Sar]C[S5]QER[S5][dA]; bridges not given here; also: S5 10-14 may or may not be stapled) [PA-0145] |  |  | increase in complement inhibition compared to PA-I8Sar [1]: ~10%
9 | S5ALIS5EPI(Sar)CQERAA ([S5]ALI[S5]EPI[Sar]CQERAA; staple 1-5) [PA-0151] | decreased MPO inhibition |  | 
10 | dIALILEPI(Sar)CQERAA (IALILEPIXCQERAA; D-isoleucine, sarcosine; MOD_RES (1)..(1) D-amino acid; MOD_RES (9)..(9) Sarcosine) [PA-0156] |  | did not show PD-1/PD-L1 inhibitory activity | 
11 | S5ALIS5EP(Sar)CCQERAA ([S5]ALI[S5]EP[Sar]CCQERAA; bridges not given here; also: S5 1-5 hydrocarbon staple: may or may not be stapled) [PA-0138] |  |  | inhibition of ABO incompatible hemolysis compared to PA-I8Sar [1]: lesser extent
12 | IALIS5EP(Sar)S5CQERAA (IALI[S5]EP[Sar][S5]CQERAA; bridges not given here; also: S5 5-9 may or may not be stapled) [PA-0140] |  |  | inhibition of ABO incompatible hemolysis compared to PA-I8Sar [1]: lesser extent; MPO inhibition compared with PA-I8Sar (MPO): reduced inhibition of MPO activity
13 | IALILEP(Sar)CS5QdERS5A (IALILEP[Sar]C[S5]Q[dE]R[S5]A; staple 10-14) [PA-0144] |  | did not show PD-1/PD-L1 inhibitory activity | 

From patent US20230272012A1, “PEPTIDES AND METHODS OF USE” (REALTA LIFE SCIENCES, INC., priority 2020, published 2023)
